{"source": "IntAct's records for PubMed 20360680", "parents": {"B1": {"name": "BICD family-like cargo adapter 1 (Mus musculus), A0JNT9 (parent)", "chain": "MSAFCLGLAGRASAPAEPDSACCMELPAGAGDAVRSPATAAALVSFPGGPGELELALEEELALLAAGERSSEPGEHPQAEPESPVEGHGPPLPPPPTQDPELLSVIRQKEKDLVLAARLGKALLERNQDMSRQYEQMHKELTDKLEHLEQEKHELRRRFENREGEWEGRVSELETDVKQLQDELERQQLHLREADREKTRAVQELSEQNQRLLDQLSRASEVERQLSMQVHALKEDFREKNSSTNQHIIRLESLQAEIKMLSDRKRELEHRLSATLEENDLLQGTVEELQDRVLILERQGHDKDLQLHQSQLELQEVRLSYRQLQGKVEELTEERSLQSSAATSTSLLSEIEQSMEAEELEQEREQLRLQLWEAYCQVRYLCSHLRGNDSADSAVSTDSSMDESSETSSAKDVPAGSLRTALNDLKRLIQSIVDGVEPTVTLLSVEMTALKEERDRLRVTSEDKEPKEQLQKAIRDRDEAIAKKNAVELELAKCKMDMMSLNSQLLDAIQQKLNLSQQLEAWQDDMHRVIDRQLMDTHLKEQSRPAAAAFPRGHGVGRGQEPSTADGKRLFSFFRKI"}, "B2": {"name": "Protein bicaudal D homolog 2 (Mus musculus), Q921C5 (parent)", "chain": "MSAPSEEEEYARLVMEAQPEWLRAEVKRLSHELAETTREKIQAAEYGLAVLEEKHQLKLQFEELEVDYEAIRSEMEQLKEAFGQAHTNHKKVAADGESREESLIQESASKEQYYVRKVLELQTELKQLRNVLTNTQSENERLTSVAQELKEINQNVEIQRGRLRDDIKEYKFREARLLQDYSELEEENISLQKQVSVLRQNQVEFEGLKHEIKRLEEETEYLNSQLEDAIRLKEISERQLEEALETLKTEREQKNNLRKELSHYMSINDSFYTSHLQVSLDGLKFSDDTVTAEPNNDAEALVNGFEHSGLVKSSLDNKTSTPRKDGLAPPSPSLVSDLLSELHISEIQKLKQQLVQMEREKVGLLATLQDTQKQLEQARGTLSEQHEKVNRLTENLSALRRLQAGKERQTSLDNEKDRDSHEDGDYYEVDINGPEILACKYHVAVAEAGELREQLKALRSTHEAREAQHAEEKGRYEAEGQALTEKISLLEKASHQDRELLAHLEKELKKVSDVAGETQGSLNVAQDELVTFSEELANLYHHVCMCNNETPNRVMLDYYREGQGKAGRTSPEGRGRRSPVLLPKGLLATEVGRADGGTGDNSPSPSSSLPSPLSDPRREPMNIYNLIAIIRDQIKHLQAAVDRTTELSRQRIASQELGPAVDKDKEALMEEILKLKSLLSTKREQITTLRTVLKANKQTAEVALANLKSKYENEKAMVTETMMKLRNELKALKEDAATFSSLRAMFATRCDEYITQLDEMQRQLAAAEDEKKTLNSLLRMAIQQKLALTQRLELLELDHEQTRRGRSKAASKAKPASPSL"}, "B3": {"name": "Ras-related protein Rab-6A (Mus musculus), P35279 (parent)", "chain": "MSAGGDFGNPLRKFKLVFLGEQSVGKTSLITRFMYDSFDNTYQATIGIDFLSKTMYLEDRTVRLQLWDTAGQERFRSLIPSYIRDSTVAVVVYDITNVNSFQQTTKWIDDVRTERGSDVIIMLVGNKTDLADKRQVSIEEGERKAKELNVMFIETSAKAGYNVKQLFRRVAAALPGMESTQDRSREDMIDIKLEKPQEQPVNEGGCSC", "partner": "B1 chain"}, "B4": {"name": "Ras-related protein Rab-6A (Mus musculus), P35279 (parent)", "chain": "B3 chain"}, "B5": {"name": "Ras-related protein Rab-6A (Homo sapiens), P20340 (parent)", "chain": "B3 chain with A3T, N202S", "partner": "B1 chain"}}, "note": "Residue numbers refer to the chain shown, from its start.", "data": [{"variants_of": "B1", "details": "with rab6a_mouse Rab6a", "values": [{"variant": "K512M", "effect of a mutation on the interaction": "disrupting interaction"}]}, {"variants_of": "B1", "details": "with rab6b_mouse Rab6b", "values": [{"variant": "K512M", "effect of a mutation on the interaction": "disrupting interaction"}]}, {"variants_of": "B2", "details": "with rab6a_mouse Rab6a", "values": [{"variant": "K785M", "effect of a mutation on the interaction": "disrupting interaction"}]}, {"variants_of": "B3", "details": "with bicl1_mouse Bicdl1, A0JNT9", "values": [{"variant": "Q72R", "effect of a mutation on the interaction": "increasing interaction"}]}, {"variants_of": "B4", "details": "with bicd2_mouse Bicd2, Q921C5", "values": [{"variant": "T27N", "effect of a mutation on the interaction": "disrupting interaction"}]}, {"variants_of": "B5", "details": "with bicl1_mouse Bicdl1, A0JNT9", "values": [{"variant": "T27N", "effect of a mutation on the interaction": "disrupting interaction"}]}]}
